According to PMC9442473, “Centriole growth is limited by the Cdk/Cyclin-dependent phosphorylation of Ana2/STIL” (The Journal of Cell Biology, 2022):

B1: Ana2-mNG (natural protein, Drosophila melanogaster, UniProt Q9XZ31 1-420, looked up)
chain: MFVPETEDMLPRLAPRPSAAVPMGHTNEIIGPTVPEVSILFGQPPQDPQMQPQQPNHAHQESSPRAAPTFASWKKQMLPRVNFSPILATELGPRTAPSSNSPCSSKEYQVMPRDRNYASDAQQTTNHMNCNAGGYNAEPKQQAYQSRRLSSSSNADVLTICAGTQTDPFNPSPPRKSLPQVVYSDIDVSNLANKSDLAALVSLVESVRHEQQQLRNLCEMILEQQQRAKPEAISKASSTTGTQCDILTTNQAGRRLSPIMQDYIAEEEEPLPPPQARVIPQFPSPRPHPPIAQSTGYRANTPQAKRIPQLAKPNTEKSMVMNELALKYLRQPVDELMKDMRLGASPKSPNPEPLRPIDNIGHAQSPNDISNASYKYLKKYRLLPEEQLEPVCPQSPMAATAPSPHIQLDLENIRNQPKLL
notes: Ana2 (fly homologue of STIL), Drosophila melanogaster; mNG with a short linker knocked in at the C-terminus of the endogenous locus; The protein appeared overexpressed about 2-4X against the untagged one; also called Ana2/STIL; WT Ana2-mNG; source: CRISPR/Cas9 knock-in at the endogenous locus, in the cytoplasm of living Drosophila syncytial embryos; not shown: mNeonGreen (mNG), C-terminal, kept
B2: mNG-Ana2 (natural protein, Drosophila melanogaster, UniProt Q9XZ31 1-420, looked up)
chain: B1 chain
notes: Ana2 (fly homologue of STIL), Drosophila melanogaster; mNG with a short linker knocked in at the N-terminus of the endogenous locus; also called Ana2/STIL; source: CRISPR/Cas9 knock-in at the endogenous locus, in the cytoplasm of living Drosophila syncytial embryos; not shown: mNeonGreen (mNG), N-terminal, kept

Biological target: the molecule itself
Assay: fluorescence correlation spectroscopy (FCS), photon-count rate per molecule (CPM); point FCS in the cytoplasm of living syncytial embryos at the beginning of nuclear cycle 12, 25.0-26.0°C; CPM compared with monomeric (mNG) and dimeric (dNG) NeonGreen controls

Protein | stoichiometry N
B1 | ~2
B2 | ~2
